Results reported in paper PMC7863392 (EMBO Molecular Medicine, 2020).

Tests used:
[1] = target: T1, recombinant, His-tagged PSMA produced by transfected CHO cells (Homo sapiens, UniProt Q04609); assay: SPR; chimeric antibodies immobilised on a Protein A coated sensor chip; His-tagged PSMA flowed; Biacore X, 25°C, 30 μl/min; conditions: both partners purified
T1 construct: prostate-specific membrane antigen (PSMA; FOLH1); probably the soluble extracellular part (surmised); source: transfected CHO cells
T1 sequence (Q04609 56-750): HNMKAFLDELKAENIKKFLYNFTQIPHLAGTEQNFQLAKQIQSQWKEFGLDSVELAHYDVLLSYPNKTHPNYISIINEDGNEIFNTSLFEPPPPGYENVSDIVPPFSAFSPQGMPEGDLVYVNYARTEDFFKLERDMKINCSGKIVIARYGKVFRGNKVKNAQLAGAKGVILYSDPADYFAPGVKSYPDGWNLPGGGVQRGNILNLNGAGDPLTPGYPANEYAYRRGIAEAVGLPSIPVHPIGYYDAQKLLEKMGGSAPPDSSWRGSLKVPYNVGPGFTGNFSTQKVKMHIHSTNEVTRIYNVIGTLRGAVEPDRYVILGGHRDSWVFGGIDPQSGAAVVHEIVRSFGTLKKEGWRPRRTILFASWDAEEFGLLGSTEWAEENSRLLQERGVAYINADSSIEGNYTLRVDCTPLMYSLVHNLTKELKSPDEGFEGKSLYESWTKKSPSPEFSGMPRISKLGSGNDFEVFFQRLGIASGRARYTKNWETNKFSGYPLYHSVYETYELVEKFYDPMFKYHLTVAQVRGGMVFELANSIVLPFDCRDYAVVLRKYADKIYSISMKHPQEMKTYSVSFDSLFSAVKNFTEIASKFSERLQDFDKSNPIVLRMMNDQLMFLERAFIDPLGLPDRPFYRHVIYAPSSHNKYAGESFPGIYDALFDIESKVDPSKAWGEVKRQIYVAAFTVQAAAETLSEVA

[2] = target: T2, PSMA in lysates of 22Rv1^high cells and of lung SCC tumor samples (Homo sapiens, UniProt Q04609-1); assay: co-IP; immunoprecipitation of PSMA from 22Rv1^high cell lysate with chimeric antibody on protein G agarose beads; Western blot with murine J591; conditions: one partner purified
T2 construct: prostate-specific membrane antigen (PSMA; FOLH1), human, endogenous; also called FOLH1; source: endogenous, lysates of 22Rv1^high cells and of slices of lung squamous cell carcinoma tumors
T2 sequence (Q04609 whole entry): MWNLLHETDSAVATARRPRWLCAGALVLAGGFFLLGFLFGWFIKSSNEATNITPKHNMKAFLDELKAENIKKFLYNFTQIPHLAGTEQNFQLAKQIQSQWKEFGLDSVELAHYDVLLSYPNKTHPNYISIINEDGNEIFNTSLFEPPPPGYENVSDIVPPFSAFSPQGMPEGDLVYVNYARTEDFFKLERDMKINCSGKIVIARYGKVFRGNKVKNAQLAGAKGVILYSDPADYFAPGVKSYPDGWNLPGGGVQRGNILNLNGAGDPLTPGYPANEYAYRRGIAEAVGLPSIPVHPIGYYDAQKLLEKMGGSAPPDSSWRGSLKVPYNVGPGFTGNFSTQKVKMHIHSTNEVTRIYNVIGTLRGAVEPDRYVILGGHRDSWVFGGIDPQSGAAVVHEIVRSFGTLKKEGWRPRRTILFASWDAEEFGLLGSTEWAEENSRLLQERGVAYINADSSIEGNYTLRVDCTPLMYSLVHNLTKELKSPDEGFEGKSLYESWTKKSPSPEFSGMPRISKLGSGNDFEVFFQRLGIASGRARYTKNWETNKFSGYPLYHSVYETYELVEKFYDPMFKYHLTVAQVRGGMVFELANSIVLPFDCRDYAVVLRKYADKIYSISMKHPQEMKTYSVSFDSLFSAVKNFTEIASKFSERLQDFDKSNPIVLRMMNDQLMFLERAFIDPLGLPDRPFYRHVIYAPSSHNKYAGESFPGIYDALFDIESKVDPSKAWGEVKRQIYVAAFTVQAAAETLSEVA

B1: chimeric J591 antibody (murine J591 variable regions fused to human constant regions) (antibody, V domains shown)
VH: EVQLQQSGPELVKPGTSVRISCKTSGYTFTEYTIHWVKQSHGKSLEWIGNINPNNGGTTYNQKFEDKATLTVDKSSSTAYMELRSLTSEDSAVYYCAAGWNFDYWGQGTTLTVSS
VL: DIVMTQSHKFMSTSVGDRVSIICKASQDVGTAVDWYQQKPGQSPKLLIYWASTRHTGVPDRFTGSGSGTDFTLAITNVQSEDLADYFCQQYNSYPLTFGAGTKLEIK
**Q.** Does B1 bind [1]?
**A.** binds

**Q.** Does B1 bind [2]?
**A.** binds
